Results as given in US20150105322.

Key:
[1] = target: non-N-glycosylated human annexin A2-6×His (N62A) group #2 expressed in Pichia pastoris
[2] = target: glycosylated human annexin A2-6×His expressed in Pichia pastoris
[3] = target: E. coli expressed human annexin A2, P07355
[4] = target: non-N-glycosylated human annexin A2-6×His (N62A) group #1 expressed in Pichia pastoris
Sequence of non-N-glycosylated human annexin A2-6×His (N62A) group #1 expressed in Pichia pastoris (chain, as listed by the source N62A): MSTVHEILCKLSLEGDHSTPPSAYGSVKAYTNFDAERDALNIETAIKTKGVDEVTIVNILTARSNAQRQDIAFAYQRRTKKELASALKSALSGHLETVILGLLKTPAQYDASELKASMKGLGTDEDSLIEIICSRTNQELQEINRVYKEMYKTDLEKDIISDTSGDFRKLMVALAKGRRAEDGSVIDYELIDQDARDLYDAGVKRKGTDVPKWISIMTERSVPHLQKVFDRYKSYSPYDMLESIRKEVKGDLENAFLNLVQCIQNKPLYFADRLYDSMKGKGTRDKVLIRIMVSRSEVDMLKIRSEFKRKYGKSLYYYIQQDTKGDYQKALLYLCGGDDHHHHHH

Sequence of non-N-glycosylated human annexin A2-6×His (N62A) group #2 expressed in Pichia pastoris (chain, as listed by the source N62A): as above
Sequence of E. coli expressed human annexin A2, P07355 (P07355 whole entry): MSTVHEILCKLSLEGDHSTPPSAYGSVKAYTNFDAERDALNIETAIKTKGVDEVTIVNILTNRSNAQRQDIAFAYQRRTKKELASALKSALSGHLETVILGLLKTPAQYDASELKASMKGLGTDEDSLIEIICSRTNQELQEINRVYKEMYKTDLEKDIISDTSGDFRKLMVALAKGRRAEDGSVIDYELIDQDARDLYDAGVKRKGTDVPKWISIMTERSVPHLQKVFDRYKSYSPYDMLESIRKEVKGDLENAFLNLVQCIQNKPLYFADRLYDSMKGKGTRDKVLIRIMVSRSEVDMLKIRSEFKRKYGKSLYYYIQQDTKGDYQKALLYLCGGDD
Sequence of glycosylated human annexin A2-6×His expressed in Pichia pastoris (chain, as listed by the source): as the sequence (chain, as listed by the source N62A) above, with A62N counted along it

B1: tissue plasminogen activator (protein)
chain: SYQVICRDEKTQMIYQQHQSWLRPVLRSNRVEYCWCNSGRAQCHSVPVKSCSEPRCFNGGTCQQALYFSDFVCQCPEGFAGKCCEIDTRATCYEDQGISYRGTWSTAESGAECTNWNSSALAQKPYSGRRPDAIRLGLGNHNYCRNPDRDSKPWCYVFKAGKYSSEFCSTPACSEGNSDCYFGNGSAYRGTHSLTESGASCLPWNSMILIGKVYTAQNPSAQALGLGKHNYCRNPDGDAKPWCHVLKNRRLTWEYCDVPSCSTCGLRQYSQPQFRIKGGLFADIASHPWQAAIFAKHRRSPGERFLCGGILISSCWILSAAHCFQERFPPHHLTVILGRTYRVVPGEEEQKFEVEKYIVHKEFDDDTYDNDIALLQLKSDSSRCAQESSVVRTVCLPPADLQLPDWTECELSGYGKHEALSPFYSERLKEAHVRLYPSSRCTSQHLLNRTVTDNMLCAGDTRSGGPQANLHDACQGDSGGPLVCLNDGRMTLVGIISWGLGCGQKDVPGVYTKVTNYLDWIRDNMRP
[1]
  tPA-mediated plasmin-generation (fluorogenic plasmin substrate D-Val-Leu-Lys-AMC, with N-terminal lysine plasminogen): The enhancer function was partially (about 50%) restored in group #2
[2]
  tPA-mediated plasmin-generation (fluorogenic plasmin substrate D-Val-Leu-Lys-AMC, with N-terminal lysine plasminogen): did not significantly enhance tPA-mediated plasmin-generation
[3]
  tPA-mediated plasmin-generation (fluorogenic plasmin substrate D-Val-Leu-Lys-AMC, with N-terminal lysine plasminogen): comparable to the E. coli expressed human annexin A2 (positive control, labeled as t1+bac-rA2)
[4]
  tPA-mediated plasmin-generation (fluorogenic plasmin substrate D-Val-Leu-Lys-AMC, with N-terminal lysine plasminogen): restored the enhancer function completely
